From patent publication US6562591 come the findings set out here.

Where a chain is given by its changes, count along the chain named.

The data set concerns the target Gelsolin (Sigma).

B1: HA-Tnik(WT), full length human Tnik isoform 1 with N-terminal HA epitope tag (protein)
chain: AYPYDVPDYAMASDSPARSLDEIDLSALRDPAGIFELVELVGNGTYGQVYKGRHVKTGQLAAIKVMDVTGDEEEEIKQEINMLKKYSHHRNIATYYGAFIKKNPPGMDDQLWLVMEFCGAGSVTDLIKNTKGNTLKEEWIAYICREILRGLSHLHQHKVIHRDIKGQNVLLTENAEVKLVDFGVSAQLDRTVGRRNTFIGTPYWMAPEVIACDENPDATYDFKSDLWSLGITAIEMAEGAPPLCDMHPMRALFLIPRNPAPRLKSKKWSKKFQSFIESCLVKNHSQRPATEQLMKHPFIRDQPNERQVRIQLKDHIDRTKKKRGEKDETEYEYSGSEEEEEENDSGEPSSILNLPGESTLRRDFLRLQLANKERSEALRRQQLEQQQRENEEHKRQLLAERQKRIEEQKEQRRRLEEQQRREKELRKQQEREQRRHYEEQMRREEERRRAEHEQEYIRRQLEEEQRQLEILQQQLLHEQALLLEYKRKQLEEQRQAERLQRQLKQERDYLVSLQHQRQEQRPVEKKPLYHYKEGMSPSEKPAWAKEVEERSRLNRQSSPAMPHKVANRISDPNLPPRSESFSISGVQPARTPPMLRPVDPQIPHLVAVKSQGPALTASQSVHEQPTKGLSGFQEALNVTSHRVEMPRQNSDPTSENPPLPTRIEKFDRSSWLRQEEDIPPKVPQRTTSISPALARKNSPGNGSALGPRLGSQPIRASNPDLRRTEPILESPLQRTSSGSSSSSSTPSSQPSSQGGSQPGSQAGSSERTRVRANSKSEGSPVLPHEPAKVKPEESRDITRPSRPASYKKAIDEDLTALAKELRELRIEETNRPMKKVTDYSSSSEESESSEEEEEDGESETHDGTVAVSDIPRLIPTGAPGSNEQYNVGMVGTHGLETSHADSFSGSISREGTLMIRETSGEKKRSGHSDSNGFAGHINLPDLVQQSHSPAGTPTEGLGRVSTHSQEMDSGTEYGMGSSTKASFTPFVDPRVYQTSPTDEDEEDEESSAAALFTSELLRQEQAKLNEARKISVVNVNPTNIRPHSDTPEIRKYKKRFNSEILCAALWGVNLLVGTENGLMLLDRSGQGKVYNLINRRRFQQMDVLEGLNVLVTISGKKNKLRVYYLSWLRNRILHNDPEVEKKQGWITVGDLEGCIHYKVVKYERIKFLVIALKNAVEIYAWAPKPYHKFMAFKSFADLQHKPLLVDLTVEEGQRLKVIFGSHTGFHVIDVDSGNSYDIYIPSHIQGNITPHAIVILPKTDGMEMLVCYEDEGVYVNTYGRITKDVVLQWGEMPTSVAYIHSNQIMGWGEKAIEIRSVETGHLDGVFMHKRAQRLKFLCERNDKVFFASVRSGGSSQVFFMTLNRNSMMNW
Take B1: the “phosphorylation of Gelsolin in an in vitro kinase assay” value is “Wild type Tnik, but not the kinase mutant form of Tnik, phosphorylated Gelsolin in vitro”.

B2: HA-Tnik(KM), kinase mutant form of Tnik with N-terminal HA epitope tag (protein)
chain: B1 chain with K64R
With B2, the “phosphorylation of Gelsolin in an in vitro kinase assay” value is given as “Wild type Tnik, but not the kinase mutant form of Tnik, phosphorylated Gelsolin in vitro”.
